Measurements as given in US20260132197A1.

Assays:
[1] = target: human CD47 on cells (SHP-77 tumor cells, human red blood cells, CCRF-CEM cells, human CD47 CHO-K1 stable cell line) (human) (UniProt Q08722); assay: cell-based or functional assay
[2] = target: human CD47 on cells (SHP-77 tumor cells, human red blood cells, CCRF-CEM cells, human CD47 CHO-K1 stable cell line) (human) (UniProt Q08722); assay: flow cytometry on human RBCs
[3] = target: human CD47 on cells (SHP-77 tumor cells, human red blood cells, CCRF-CEM cells, human CD47 CHO-K1 stable cell line) (human) (UniProt Q08722); assay: flow cytometry on SHP-77 cells
Human CD47-C33G (human) [4] = target: Human CD47-C33G (human) (UniProt Q08722); assay: SPR, IgG captured, CD47 in flow; exp 1
[5] = target: wild type human CD47 (Acro Biosystems, cat. no. CD7-H5227) (human) (UniProt Q08722); assay: SPR, IgG captured, CD47 in flow; exp 1
Human CD47-C33G (human) [6] = target: Human CD47-C33G (human) (UniProt Q08722); assay: SPR, IgG captured, CD47 in flow; exp 2
[7] = target: wild type human CD47 (Acro Biosystems, cat. no. CD7-H5227) (human) (UniProt Q08722); assay: SPR, IgG captured, CD47 in flow; exp 2
Human CD47-C33G (human) [8] = target: Human CD47-C33G (human) (UniProt Q08722); assay: SPR, IgG captured, CD47 in flow; exp 3
[9] = target: wild type human CD47 (Acro Biosystems, cat. no. CD7-H5227) (human) (UniProt Q08722); assay: SPR, IgG captured, CD47 in flow; exp 3
Human CD47-C33G (human) [10] = target: Human CD47-C33G (human) (UniProt Q08722); assay: SPR, IgG captured, CD47 in flow; exp 4
[11] = target: wild type human CD47 (Acro Biosystems, cat. no. CD7-H5227) (human) (UniProt Q08722); assay: SPR, IgG captured, CD47 in flow; exp 4
Human CD47-C33G (human) [12] = target: Human CD47-C33G (human) (UniProt Q08722); assay: SPR, IgG captured, CD47 in flow; exp 1; remark: listed apart in the source
[13] = target: wild type human CD47 (Acro Biosystems, cat. no. CD7-H5227) (human) (UniProt Q08722); assay: SPR, IgG captured, CD47 in flow; exp 1; remark: listed apart in the source
Human CD47-C33G (human) [14] = target: Human CD47-C33G (human) (UniProt Q08722); assay: SPR, IgG captured, CD47 in flow; exp 2; remark: listed apart in the source
[15] = target: wild type human CD47 (Acro Biosystems, cat. no. CD7-H5227) (human) (UniProt Q08722); assay: SPR, IgG captured, CD47 in flow; exp 2; remark: listed apart in the source
Human CD47-C33G (human) [16] = target: Human CD47-C33G (human) (UniProt Q08722); assay: SPR, IgG captured, CD47 in flow; exp 1; estimated, out of instrument limit
Human CD47-C33G (human) [17] = target: Human CD47-C33G (human) (UniProt Q08722); assay: SPR, IgG captured, CD47 in flow; exp 3; estimated, out of instrument limit
Human CD47-C33G (human) [18] = target: Human CD47-C33G (human) (UniProt Q08722); assay: SPR, IgG captured, CD47 in flow; exp 2; estimated, out of instrument limit
[19] = target: human CD47 on cells (SHP-77 tumor cells, human red blood cells, CCRF-CEM cells, human CD47 CHO-K1 stable cell line) (human) (UniProt Q08722); assay: flow cytometry on human CD47 CHO-K1 cells; plateau not reached, not accurate
[20] = target: cynomolgus CD47 on CHO-K1 stable cell line (cynomolgus); assay: flow cytometry on cynomolgus CD47 CHO-K1 cells; plateau not reached, not accurate
cynomolgus CD47 on CHO-K1 stable cell line (cynomolgus), sequence (chain, as listed by the source): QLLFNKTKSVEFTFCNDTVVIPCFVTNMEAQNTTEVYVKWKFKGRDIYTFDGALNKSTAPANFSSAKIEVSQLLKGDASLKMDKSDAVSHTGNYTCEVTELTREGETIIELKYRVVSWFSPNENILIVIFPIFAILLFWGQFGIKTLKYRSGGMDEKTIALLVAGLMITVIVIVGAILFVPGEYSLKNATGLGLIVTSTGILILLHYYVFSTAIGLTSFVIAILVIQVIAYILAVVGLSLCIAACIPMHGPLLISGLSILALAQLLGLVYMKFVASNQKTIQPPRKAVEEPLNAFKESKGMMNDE

CCRF-CEM phagocytosis EC50 [1]: 0.49 nM
CCRF-CEM phagocytosis, Phagocytosis (%) [1]: 68.6%
EC50 [2]: 4.3 nM
Fitted maximal MFI [2]: 21400 MFI
EC50 [3]: 2.8 nM
Fitted maximal MFI [3]: 25400 MFI
kon (Human CD47-C33G (human) [4]): 190000 M⁻¹ s⁻¹
Kd [5]: 4.5 nM
koff [5]: 0.0022 s⁻¹
kon [5]: 500000 M⁻¹ s⁻¹
Kd (Human CD47-C33G (human) [6]): 540 nM
koff (Human CD47-C33G (human) [6]): 0.09 s⁻¹
kon (Human CD47-C33G (human) [6]): 170000 M⁻¹ s⁻¹
Kd [7]: 4.4 nM
kon [7]: 550000 M⁻¹ s⁻¹
kon (Human CD47-C33G (human) [8]): 160000 M⁻¹ s⁻¹
Kd [9]: 4.7 nM
koff [9]: 0.0022 s⁻¹
kon [9]: 460000 M⁻¹ s⁻¹
Kd (Human CD47-C33G (human) [10]): 600 nM
koff (Human CD47-C33G (human) [10]): 0.13 s⁻¹
kon (Human CD47-C33G (human) [10]): 210000 M⁻¹ s⁻¹
Kd [11]: 4.7 nM
koff [11]: 0.0018 s⁻¹
kon [11]: 380000 M⁻¹ s⁻¹
Kd (Human CD47-C33G (human) [12]): 540 nM
koff (Human CD47-C33G (human) [12]): 0.09 s⁻¹
kon (Human CD47-C33G (human) [12]): 170000 M⁻¹ s⁻¹
Kd [13]: 4.4 nM
koff [13]: 0.0024 s⁻¹
kon [13]: 550000 M⁻¹ s⁻¹
kon (Human CD47-C33G (human) [14]): 490000 M⁻¹ s⁻¹
Kd [15]: 4.3 nM
koff [15]: 0.0024 s⁻¹
kon [15]: 540000 M⁻¹ s⁻¹
Kd (Human CD47-C33G (human) [16]): > 530 nM
koff (Human CD47-C33G (human) [16]): > 0.1 s⁻¹
Kd (Human CD47-C33G (human) [17]): > 630 nM
koff (Human CD47-C33G (human) [17]): > 0.1 s⁻¹
Kd (Human CD47-C33G (human) [18]): > 200 nM
EC50 [19]: 5.7 nM
EC50 [20]: 9.7 nM
B1: TJC4 positive control antibody (antibody, INN chains, looked up, V domains shown)
VH: EVQLVESGGGLVKPGGSLRLSCAASGLTFERAWMNWVRQAPGKGLEWVGRIKRKTDGETTDYAAPVKGRFSISRDDSKNTLYLQMNSLKTEDTAVYYCAGSNRAFDIWGQGTMVTVSS
VL: DIVMTQSPDSLAVSLGERATINCKSSQSVLYAGNNRNYLAWYQQKPGQPPKLLINQASTRASGVPDRFSGSGSGTEFTLIISSLQAEDVAIYYCQQYYTPPLAFGGGTKLEIK
